Reference: paper PMC10361598
Where two headings read alike, the source gives them in different places.

Columns and labels:
[1] = target: CXCR4^QTY-Fc (not stated | rabbit); assay: graphene field-effect transistor array
[2] = target: CXCR4^QTY-Fc (not stated | rabbit); assay: graphene field-effect transistor array; remark: listed apart in the source

recombinant HIV coat glycoprotein gp_(41–120)
Kd [1]: 5.8 nM
Kd [2]: 19.1 nM
